From patent US20240209022A1, “NOVEL PEPTIDE HAVING ANTI-INFLAMMATORY AND TISSUE REGENERATIVE ACTIONS” (KOREA RESEARCH INSTITUTE OF BIOSCIENCE AND BIOTECHNOLOGY, priority 2020, published 2024)

What was measured:
Type in all cases: in vivo, C57BL/6J mice
[1] = system: gastritis/gastric ulcer model; experiment: HCl/ethanol gastritis/gastric ulcer model; conditions: vs PBS buffer group
Procedure: For a gastritis/gastric ulcer model, 7-week-old male C57BL/6J mice were used, and from 3 days before induction, the peptides of the present invention were dissolved in PBS buffer and then orally administered to the mice by 150 μL per animal at the same time once a day. Amuc_1409 or PEP001, PEP002, PEP003, PEP004, or PEP005 was dissolved in PBS buffer at a concentration of 6.7 μM, and novel tetrapeptides PEP006, PEP007, PEP008, PEP009, and PEP010 and novel tripeptides PEP011, PEP012, and PEP013 were each dissolved in PBS buffer at a concentration of 0.15 μg/150 μL (PEP006) or 0.2 μg/150 μL (PEP007, PEP008, PEP009, PEP010, PEP011, PEP012, and PEP013). For the induction of acute gastritis/gastric ulcer, 0.3 M HCl/60% ethanol was orally administered to the mice by 0.2 mL for each, the tissue was harvested after 1 hour, photographs of the inner surface of the stomach were taken, and the degree of damage to the stomach was compared. Measurements of gastritis/gastric ulcer indexes were converted into scores according to the degree of mucosal damage. A score of 0 was given if there was no damage, a score of 1 was given to an insignificant circle-shaped hemorrhagic corrosion site of less than 5 mm, a score of 2 was given to a hemorrhagic corrosion site with a length more than 5 mm, and a score of 3 was given to one or more hemorrhagic corrosion sites corresponding to the score of 2, a score of 4 was given to a hemorrhagic corrosion of more than 5 mm in length and less than 2 mm in width, a score of 5 was given to 2 to 3 hemorrhagic corrosions corresponding to the score of 4, a score of 6 was given to 4 to 5 hemorrhagic corrosions corresponding to the score of 4, a score of 7 was given to 6 or more hemorrhagic corrosions corresponding to the score of 4, and a score of 8 was given if there was hemorrhagic corrosion throughout the gastric mucosa. In order to confirm additional anti-inflammatory activity of the administered peptides, mRNA expression of inflammation-related genes, Tnfα, Il-1β, iNos, Cox2, and Il-10, in the gastric mucosal tissue was examined.

[2] = system: full-thickness skin defect wound-induced model; experiment: Full-thickness skin defect wound-induced model (tail); conditions: 120 μM, 25 μL applied once a day for 28 days; vs vehicle
Procedure: In order to confirm the tissue regeneration efficacy of the novel peptides, an experiment was conducted using a wound-induced model induced by a full-thickness skin defect of mouse's tail. For a full-thickness skin defect wound-induced model, 9-week-old specific pathogen free (SPF) male C57BL/6J mice were anesthetized, and then in order to indicate full-thickness wounding, a full-thickness wound with a size of 10 mm×3 mm was made on the dorsal part of the mouse's tail, about 1.0 cm away from the base of the mouse's tail, using an aseptic dissection mass No. 10. Bleeding was stopped by compressing the wound, and the wound was covered with a film spray dressing (Cavilon, 3M). For 28 days from the day of wound induction, Amuc_1409 or PEP001 to PEP013 were each dissolved in vehicle (50% ethanol, 20% propylene glycol, 30% water) at a concentration of 120 μM and then applied to the wound site by 25 μL per animal once a day. For the control group, the same volume of vehicle (50% ethanol, 20% propylene glycol, 30% water) was applied to the wound site. The test was terminated on day 29 after wound induction. In order to observe the wound healing effect, the wound sites of animals in each test group were individually photographed using a digital camera at a constant height from the wound for 28 days at 7-day intervals from the day of wound induction, and the wound area was measured using the Image J Soft program.

[3] = system: depression and anxiety model; experiment: LPS-induced depression and anxiety model (TST, FST, EPM); conditions: vs PBS buffer group
Procedure: By Daehan Biolink, 7-week-old male C57BL/6J mice weighing 20-22 g were supplied, and the animals were sufficiently supplied with solid feed and water until the day of the experiment, acclimatized for 1 week while maintaining an environment with a temperature of 22° C. 2° C., a humidity of 55%±15%, and a 12-hour light/dark cycle, and then used in the experiment. From 3 days before inducing depression and anxiety, the peptide was dissolved in PBS buffer and orally administered to the mice by 150 μL per animal at the same time once a day. Amuc_1409 or PEP001, PEP002, PEP003, PEP004, or PEP005 was dissolved in PBS buffer at a concentration of 6.7 μM and then used, and novel tetrapeptides PEP006, PEP007, PEP008, PEP009, and PEP010 and novel tripeptides PEP011, PEP012, and PEP013 were each dissolved in PBS buffer at a concentration of 0.2 μg/150 μL and then used. On the 3rd day of peptide administration, lipopolysaccharide (LPS) dissolved in PBS buffer was intraperitoneally injected at a concentration of 0.8 mg/kg to induce depression and anxiety. Tail suspension test (TST) and forced swim test (FST) were conducted to analyze the effect on depression. As the TST, a tail suspension device was installed in an open white acrylic box of 20 cm×25 cm×30 cm size, and the mouse was suspended upside down at a height where the mouse's tail would not touch the floor, and then the time for which the mouse maintained immobility while observing in the same environment was measured for 6 minutes. […] Water at around 25° C. was filled in a transparent acrylic cylinder (45 cm depth×18 cm diameter) up to 30 cm from the bottom, the mouse was exposed to water, and the time for which the mouse maintained immobility while swimming was measured for 6 minutes. […] An elevated plus-maze (EPM) test was performed to analyze the effect on anxiety level. The EPM device consists of two open arms (50 cm×10 cm) and two […] (50 cm×10 cm) at a height of 50 cm from the floor, and the arms are connected by a central area of 10 cm×10 cm. At the start of the experiment, the mouse was placed in the center of the maze and the time for which the mouse stayed in the open arm was measured for a total of 5 minutes using a video camera, and the percentage of time spent in the open arm was calculated and recorded [(time spent in open arm/time spent in open and closed arms)×100]. In addition, in order to examine the anti-inflammatory activity according to the administration of Amuc_1409 and PEP001, PEP002, PEP003, PEP004, and PEP005 in an animal model of depression and anxiety, the expression of Ifnγ and Il-10 mRNA, which are major inflammatory genes related to depression, in brain tissue (hippocampus) was examined.

B1: Amuc_1409: SEQ ID NO: 15, functional fragment obtained by eliminating the leader sequence from SEQ ID NO: 14; protein derived from Akkermansia muciniphila (protein)
chain: IPESSVPAAAVSSIKGAYPNAGPIEWDSEMHGMERIYEAEFRINGFQFDVKIAPDGKIVRIKEEIAASSLPEAVRASVLKRYPGCRIKEAEKITEGELVRYKVEVADSRDDYDVLIAPDGNILHVDR
modifications: Amuc_1409_fragment
notes: protein derived from Akkermansia muciniphila
- Il-10 mRNA expression in gastric mucosal tissue ([1]; RT-qPCR): increased
- Tnfα mRNA expression in gastric mucosal tissue ([1]; RT-qPCR): significantly decreased
- iNos mRNA expression in gastric mucosal tissue ([1]; RT-qPCR): significantly decreased
- degree of gastric mucosal damage (score) ([1]; oral, 1 hour after HCl/ethanol): significantly decreased
- wound area [2]: significantly decreased
- wound size (visually confirmed) [2]: rapidly decreased
- Ifnγ mRNA expression in brain tissue (hippocampus) ([3]; RT-qPCR): decreased
- Il-10 mRNA expression in brain tissue (hippocampus) ([3]; RT-qPCR): increased
- immobility time in forced swim test ([3]; oral, LPS-induced): significantly decreased
- immobility time in tail suspension test ([3]; oral, LPS-induced): significantly decreased
- time spent in the open arm, elevated plus-maze test [3]: increased
